The values below come from patent publication US20150110788A1 (published 2015).

The target of experiment [1] is FGF2 (UniProt P09038 143-288). The experiment can be described thus: ELISA. (In general: An ELISA detects its analyte on a solid surface through an enzyme-linked reagent.)
The target of experiment [2] is T1, VEGF (UniProt P15692 27-191).
T1 chain: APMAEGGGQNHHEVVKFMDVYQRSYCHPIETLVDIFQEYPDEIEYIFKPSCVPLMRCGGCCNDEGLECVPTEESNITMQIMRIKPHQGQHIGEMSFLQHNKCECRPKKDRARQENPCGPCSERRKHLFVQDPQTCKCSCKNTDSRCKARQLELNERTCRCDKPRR
The experiment can be described thus: ELISA.

Chain of FGF2 (P09038 143-288): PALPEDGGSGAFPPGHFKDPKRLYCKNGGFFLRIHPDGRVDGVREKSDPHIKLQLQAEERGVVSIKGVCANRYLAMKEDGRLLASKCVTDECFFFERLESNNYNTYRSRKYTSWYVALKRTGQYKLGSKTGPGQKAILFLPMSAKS

B1: HuGAL-F2 (antibody, V domains shown)
VH: EVQLVQSGAEVKKPGSSVKVSCKASGYTFTNYVINWVRQAPGQGLEWIGYNDPYNDVSKYNEKFKGRATITSDKSTSTAYMELSSLRSEDTAVYYCAKEGGGKYVYAMDSWGQGTTVTVSS
VL: DIQMTQSPSSLSASVGDRVTITCKASQSVSSDVGWYQQKPGKAPKLLIYSGSNRYSGVPSRFSGSGSGTDFTLTISSLQPEDFATYYCQQDYYSPWTFGQGTKVEIK
For the molecule B1, in experiment [1], the EC50 turned out to be 0.1 nM. In other words, the sub-nanomolar range.

B2: X-Ava/F2 (bispecific antibody)
light 1: DIQMTQSPSSLSASVGDRVTITCKASQSVSSDVGWYQQKPGKAPKLLIYSGSNRYSGVPSRFSGSGSGTDFTLTISSLQPEDFATYYCQQDYYSPWTFGQGTKVEIKRTVAAPSVFIFPPSDEQLKSGTASVVCLLNNFYPREAKVQWKVDNALQSGNSQESVTEQDSKDSTYSLSSTLTLSKADYEKHKVYACEVTHQGLSSPVTKSFNRGEC
heavy 1: not shown
light 2: DIQMTQSPSSLSASVGDRVTITCSASQDISNYLNWYQQKPGKAPKVLIYFTSSLHSGVPSRFSGSGSGTDFTLTISSLQPEDFATYYCQQYSTVPWTFGQGTKVEIKSSASTKGPSVFPLAPSSKSTSGGTAALGCLVKDYFPEPVTVSWNSGALTSGVHTFPAVLQSSGLYSLSSVVTVPSSSLGTQTYICNVNHKPSNTKVDKRVEPKSC
heavy 2: not shown
B2: the values for the EC50 in experiment [1] and in experiment [2] were 0.35 nM and 1.43 nM, respectively.

By EC50 is commonly meant the concentration at which the effect is half-maximal. A higher EC50 goes with a less potent agent.
